Source: patent US20020151680A1 (VEGENICS, published 2002)

Tests used:
Assay in all cases: 35S IP, receptor-Fc
[1] = biological target: T1, VEGFR-1-Fc (UniProt P17948 27-331)
T1 construct: domain: first three Ig domains; expressed in Drosophila S2 cells, purified on Protein A sepharose; also called VEGFR-1-Fc fusion protein; not shown: Fc fragment from the Signal-pIgPlus vector
Experimental: (§1) The binding assay procedure was identical to the immunoprecipitation using pentahistidine antibody described in Example 2, apart from the composition of the immunoprecipitation (IP) mixes. The IP mixes used for the receptor binding analysis were as follows: For VEGFR- 1 binding assays, the IP mix was phosphate buffered saline (PBS) containing 1.5% BSA, 0.06% Tween 20, 3 μg/ml heparin and 400 ng/ml VEGFR-1 -Fc fusion protein (100 μl of this IP mix was added to 200 μl of sample supernatant); for VEGFR-2 binding assays, the IP mix was 82% conditioned cell supernatant from 293T cells transiently expressing VEGFR-2-Fc fusion protein in mixture with 18% of a PBS solution that contained 5% BSA, 0.2% Tween 20, and 10 μg/ml heparin (250 μl of IP mix was added to 200 μl of sample supernatant); and for VEGFR-3 binding assays, the IP mix was 82% conditioned cell supernatant from 293T cells transiently expressing VEGFR-3-Fc fusion protein, 18% of PBS containing 5% BSA, 0.2% Tween 20, and 10 μg/ml heparin (250 μl of IP mix was added to 200 μl of sample supernatant).

[2] = biological target: T2, VEGFR-2-Fc (UniProt P35968 24-326)
T2 construct: domain: first 3 Ig domains; used as conditioned supernatant of 293T cells; also called VEGFR-2-Fc fusion protein; not shown: Fc fragment of the pIg vector
T2 sequence (P35968 24-326): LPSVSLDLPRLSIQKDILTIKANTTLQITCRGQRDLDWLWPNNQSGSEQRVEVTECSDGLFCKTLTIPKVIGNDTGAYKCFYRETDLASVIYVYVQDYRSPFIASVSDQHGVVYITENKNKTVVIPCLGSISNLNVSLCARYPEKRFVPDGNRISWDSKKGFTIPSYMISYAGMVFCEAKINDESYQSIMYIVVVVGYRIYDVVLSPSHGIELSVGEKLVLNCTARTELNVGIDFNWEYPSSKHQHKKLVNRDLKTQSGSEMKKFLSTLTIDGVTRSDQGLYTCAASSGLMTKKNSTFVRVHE
Experimental: as §1

[3] = biological target: T3, VEGFR-3-Fc (UniProt P35916 25-329)
T3 construct: domain: first three Ig domains; used as conditioned supernatant of 293T cells; also called VEGFR-3-Fc fusion protein; not shown: Fc fragment of the pIg vector
T3 sequence (looked up): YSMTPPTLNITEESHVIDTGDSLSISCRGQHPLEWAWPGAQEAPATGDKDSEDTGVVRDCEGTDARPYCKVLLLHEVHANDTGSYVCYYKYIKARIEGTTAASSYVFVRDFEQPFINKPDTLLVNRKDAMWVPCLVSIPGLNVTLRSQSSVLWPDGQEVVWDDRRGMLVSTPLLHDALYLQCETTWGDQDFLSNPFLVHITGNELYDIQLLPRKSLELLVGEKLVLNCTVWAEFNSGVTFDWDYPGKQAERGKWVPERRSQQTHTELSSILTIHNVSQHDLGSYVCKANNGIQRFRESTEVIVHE
Experimental: as §1

T1 sequence (P17948 27-331): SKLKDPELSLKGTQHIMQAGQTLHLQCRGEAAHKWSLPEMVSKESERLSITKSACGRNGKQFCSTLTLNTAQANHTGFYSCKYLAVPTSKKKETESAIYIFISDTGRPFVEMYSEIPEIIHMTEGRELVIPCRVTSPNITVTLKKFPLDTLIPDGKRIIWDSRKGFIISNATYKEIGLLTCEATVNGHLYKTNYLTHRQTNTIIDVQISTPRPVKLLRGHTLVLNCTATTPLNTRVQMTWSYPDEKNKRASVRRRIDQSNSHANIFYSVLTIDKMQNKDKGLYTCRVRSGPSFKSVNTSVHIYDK

B1: 31-11 (ligand)
chain: GQNHHEVVKSIDNEWRKTQCMPIETLVDIFQEYPDEIEYIFKPSCVPLMRCGGCCNSEGLQCVPTEESNITMQIMRITVPLSQGPKPVTISFLQHNKCECRPKKDLVFEQKLISEEDLNSAVDHHHHHH
binding result [1]: no binding
binding result [2]: no binding
binding result [3]: no binding

B2: 31-6 (ligand)
chain: GQNHHEVVKSIDNEWRKTQCMPIETLVDIFQEYPDEIEYIFKPSCVPLMRCGGCCNDEGLECMNTSTSYLSKTLFEIKPHQGQHIGEMSFANHTSCRCMSKLDLVFEQKLISEEDLNSAVDHHHHHH
binding result [1]: no binding
binding result [2]: no binding
binding result [3]: no binding

B3: 12-16 (ligand)
chain: GQNHHEVVKFMDVYQRSYCHPIETLVDIFQEFGVATNTFFKPPCVSVYRCGLLQ
binding result [1]: no binding
binding result [2]: no binding

B4: 31-1 (ligand)
chain: GQNHHEVVKSIDNEWRKTQCMPIETLVDIFQEYPDEIEYIFKPSCVPLMRCGGCCNDEGLECVPTEESNITMQIMRIKPHQGQHIGEMSFLQHNKCECRPKKDLVFEQKLISEEDLNSAVDHHHHHH
binding result [1]: no binding
binding result [2]: no binding
binding result [3]: no binding
